From the supplement of paper PMC11316812
± gives the standard deviation of the averaged measurements.

Key:
[1] = system: MCF7; experiment: percentage of EdU-negative (G0-arrested) nuclei per well, 72 h; higher = more G0 arrest; details: reference: sequence is the full UniProt precursor, the tested protein was the secreted form or ectodomain
[2] = system: hTERT-HMEC; experiment: as above; details: reference: sequence is the full UniProt precursor, the tested protein was the secreted form or ectodomain
[3] = protein concentration 0.0214286 µM
[4] = protein concentration 0.0225 µM
[5] = protein concentration 0.214286 µM
[6] = protein concentration 0.021935 µM
[7] = protein concentration 0.21935 µM
[8] = protein concentration 0.03125 µM
[9] = protein concentration 0.3125 µM
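Also: secreted proteins added to cultured cells, EdU pulse at the end, nuclei found by Hoechst imaging, EdU status from nuclear versus surrounding ring intensity ratio, PBS as neutral control.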

MGPWSRSLSALLLLLQVSSWLCQEPEPCHPGFDAESYTFTVPRRHLERGRVLGRVNFEDCTGRQRTAYFSLDTRFKVGTDGVITVKRPLRFHNPQIHFLVYAWDSTYRKFSTKVTLNTVGHHHRPPPHQASVSGIQAELLTFPNSSPGLRRQKRDWVIPPISCPENEKGPFPKNLVQIKSNKDKEGKVFYSITGQGADTPPVGVFIIERETGWLKVTEPLDRERIATYTLFSHAVSSNGNAVEDPMEILITVTDQNDNKPEFTQEVFKGSVMEGALPGTSVMEVTATDADDDVNTYNAAIAYTILSQDPELPDKNMFTINRNTGVISVVTTGLDRESFPTYTLVVQAADLQGEGLSTTATAVITVTDTNDNPPIFNPTTYKGQVPENEANVVITTLKVTDADAPNTPAWEAVYTILNDDGGQFVVTTNPVNNDGILKTAKGLDFEAKQQYILHVAVTNVVPFEVSLTTSTATVTVDVLDVNEAPIFVPPEKRVEVSEDFGVGQEITSYTAQEPDTFMEQKITYRIWRDTANWLEINPDTGAISTRAELDREDFEHVKNSTYTALIIATDNGSPVATGTGTLLLILSDVNDNAPIPEPRTIFFCERNPKPQVINIIDADLPPNTSPFTAELTHGASANWTIQYNDPTQESIILKPKMALEVGDYKINLKLMDNQNKDQVTTLEVSVCDCEGAAGVCRKAQPVEAGLQIPAILGILGGILALLILILLLLLFLRRRAVVKEPLLPPEDDTRDNVYYYDEEGGGEEDQDFDLSQLHRGLDARPEVTRNDVAPTLMSVPRYLPRPANPDEIGNFIDENLKAADTDPTAPPYDSLLVFDYEGSGSEAASLSSLNSSESDKDQDYDYLNEWGNRFKKLADMYGGGEDD
percentage of EdU-negative [1, 3]: 23.8 ± 3.6% | percentage of EdU-negative [1, 4]: 26.2 ± 3.6% | percentage of EdU-negative [1, 5]: 26.8 ± 1.9% | percentage of EdU-negative ([1]; protein concentration 0.225 µM): 28.91 ± 0.16% | percentage of EdU-negative [2, 3]: 5.09 ± 0.58% | percentage of EdU-negative [2, 4]: 4.93 ± 0.37% | percentage of EdU-negative [2, 5]: 6.74 ± 0.63% | percentage of EdU-negative ([2]; protein concentration 0.225 µM): 23.4 ± 1.1%

MLPAATASLLGPLLTACALLPFAQGQTPNYTRPVFLCGGDVKGESGYVASEGFPNLYPPNKECIWTITVPEGQTVSLSFRVFDLELHPACRYDALEVFAGSGTSGQRLGRFCGTFRPAPLVAPGNQVTLRMTTDEGTGGRGFLLWYSGRATSGTEHQFCGGRLEKAQGTLTTPNWPESDYPPGISCSWHIIAPPDQVIALTFEKFDLEPDTYCRYDSVSVFNGAVSDDSRRLGKFCGDAVPGSISSEGNELLVQFVSDLSVTADGFSASYKTLPRGTAKEGQGPGPKRGTEPKVKLPPKSQPPEKTEESPSAPDAPTCPKQCRRTGTLQSNFCASSLVVTATVKSMVREPGEGLAVTVSLIGAYKTGGLDLPSPPTGASLKFYVPCKQCPPMKKGVSYLLMGQVEENRGPVLPPESFVVLHRPNQDQILTNLSKRKCPSQPVRAAASQD
percentage of EdU-negative [1, 6]: 22.7 ± 2.1% | percentage of EdU-negative [1, 7]: 26.5 ± 0.72% | percentage of EdU-negative [2, 6]: 4.8 ± 0.62% | percentage of EdU-negative [2, 7]: 6.48 ± 0.73%

MAMRLILFFGALFGHIYCLETFVGDQVLEIVPSNEEQIKNLLQLEAQEHLQLDFWKSPTTPGETAHVRVPFVNVQAVKVFLESQGIAYSIMIEDVQVLLDKENEEMLFNRRRERSGNFNFGAYHTLEEISQEMDNLVAEHPGLVSKVNIGSSFENRPMNVLKFSTGGDKPAIWLDAGIHAREWVTQATALWTANKIVSDYGKDPSITSILDALDIFLLPVTNPDGYVFSQTKNRMWRKTRSKVSGSLCVGVDPNRNWDAGFGGPGASSNPCSDSYHGPSANSEVEVKSIVDFIKSHGKVKAFITLHSYSQLLMFPYGYKCTKLDDFDELSEVAQKAAQSLRSLHGTKYKVGPICSVIYQASGGSIDWSYDYGIKYSFAFELRDTGRYGFLLPARQILPTAEETWLGLKAIMEHVRDHPY
percentage of EdU-negative [1, 4]: 25.6 ± 2.3% | percentage of EdU-negative ([1]; protein concentration 0.225 µM): 24.9 ± 0.71% | percentage of EdU-negative [2, 4]: 6 ± 1% | percentage of EdU-negative ([2]; protein concentration 0.225 µM): 5.16 ± 0.28%

MRRMWATQGLAVALALSVLPGSRALRPGDCEVCISYLGRFYQDLKDRDVTFSPATIENELIKFCREARGKENRLCYYIGATDDAATKIINEVSKPLAHHIPVEKICEKLKKKDSQICELKYDKQIDLSTVDLKKLRVKELKKILDDWGETCKGCAEKSDYIRKINELMPKYAPKAASARTDL
percentage of EdU-negative [1, 8]: 25.9 ± 1.2% | percentage of EdU-negative [1, 9]: 24.8 ± 3.6% | percentage of EdU-negative [2, 8]: 5.21 ± 0.51% | percentage of EdU-negative [2, 9]: 6.6 ± 0.2%

MISPFLVLAIGTCLTNSLVPEKEKDPKYWRDQAQETLKYALELQKLNTNVAKNVIMFLGDGMGVSTVTAARILKGQLHHNPGEETRLEMDKFPFVALSKTYNTNAQVPDSAGTATAYLCGVKANEGTVGVSAATERSRCNTTQGNEVTSILRWAKDAGKSVGIVTTTRVNHATPSAAYAHSADRDWYSDNEMPPEALSQGCKDIAYQLMHNIRDIDVIMGGGRKYMYPKNKTDVEYESDEKARGTRLDGLDLVDTWKSFKPRYKHSHFIWNRTELLTLDPHNVDYLLGLFEPGDMQYELNRNNVTDPSLSEMVVVAIQILRKNPKGFFLLVEGGRIDHGHHEGKAKQALHEAVEMDRAIGQAGSLTSSEDTLTVVTADHSHVFTFGGYTPRGNSIFGLAPMLSDTDKKPFTAILYGNGPGYKVVGGERENVSMVDYAHNNYQAQSAVPLRHETHGGEDVAVFSKGPMAHLLHGVHEQNYVPHVMAYAACIGANLGHCAPASSAGSLAAGPLLLALALYPLSVLF
percentage of EdU-negative [1, 4]: 26.1 ± 0.93% | percentage of EdU-negative ([1]; protein concentration 0.225 µM): 24.1 ± 2.4% | percentage of EdU-negative [2, 4]: 4.55 ± 0.2% | percentage of EdU-negative ([2]; protein concentration 0.225 µM): 4.93 ± 0.7%

MVPKLFTSQICLLLLLGLMGVEGSLHARPPQFTRAQWFAIQHISLNPPRCTIAMRAINNYRWRCKNQNTFLRTTFANVVNVCGNQSIRCPHNRTLNNCHRSRFRVPLLHCDLINPGAQNISNCTYADRPGRRFYVVACDNRDPRDSPRYPVVPVHLDTTI
percentage of EdU-negative ([1]; protein concentration 0.022 µM): 26.3 ± 2.1% | percentage of EdU-negative ([1]; protein concentration 0.22 µM): 25.35 ± 0.13% | percentage of EdU-negative ([2]; protein concentration 0.022 µM): 5.32 ± 0.8% | percentage of EdU-negative ([2]; protein concentration 0.22 µM): 6.25 ± 2.1%
